Tests used:
photoreceptor cells = test: Photoreceptor survival in rd1 mice (retinitis pigmentosa model); format: in vivo, mouse
Protocol: The rd1 mouse model is a model for human RP and carried a loss-of-function mutation in the gene encoding for the β-subunit of the rod photoreceptor cGMP phosphodiesterase-6.2. This loss-of-function mutation led to an accumulation of cGMP, which caused photoreceptor cell death.
In these studies, intraocular injection of the 4Ig (2 μg/μl) peptide at P9 and P15 was performed and animals were sacrificed at P21 to examine cell survival. […] Injection of 4Ig increased outer nuclear layer (ONL) thickness to about 6 cells (FIG. 19). This measurement was the average thickness of the ONL.
As described above, cholesterol depletion removes lipid rafts. Specifically, mice were treated with daily […] (IP) injections of MβCD from P9 to P21.
To examine the effect of reducing cholesterol synthesis on cell survival, AY-9944 was examined in rd1 mice (FIGS. 20 and 21). Rd1 mice were treated using two intra-peritoneal injections of AY-9944, at P9 and P15 and sacrificed at P21.

[1] = tested on: retinal explants (retinal ganglion cell neurites); test: Retinal explant neurite outgrowth on laminin or myelin; format: cell-based, chick; conditions: AY-9944 1 μM, BM15.766 4 μM, 18 hrs
Protocol: (§1) Retinal explants outgrowth assay. Poly-L-Lysine (PLL; SIGMA; 10 μg/ml) coated glass coverslips were treated with Laminin (10 μg/ml; Invitrogen) and RGMa proteins (5 μg) and incubated for 3 hrs at room temperature. PLL treated coverslips were coated with myelin overnight (6 μg/cm2), followed by coating with Laminin. Temporal retinal explants were cultured on either myelin or protein-coated surfaces in DMEM F-12 media (2% chick serum, 10% FBS) for 18 h. To disrupt rafts, explants were pre-treated with 10 mM MβCD for 12 min or 2 U/ml CO for 1 h at 37° C., washed, and cultured on protein coated coverslips. Explants were then fixed with 4% PFA and stained with Alexa488-fluor-phalloidin (1:50; Molecular Probes). Fiber length was quantified using Image Pro 5.0.
Specifically, retinal explants were prepared from E7 chick embryos, cultured on coverslips coated with on Laminin or myelin, and treated with control (DMSO) or AY-9944 (1 μM) or BM15.766 (4 μM), two inhibitors of cholesterol biosynthesis. After 18 hrs in culture, explants were fixed with 4% PFA and stained with Alexa488-Phalloidin. Neurites were measured using Cellsens software. Retinal explants were cultured on laminin (control) or myelin (the inhibitory compound of the CNS). On laminin, axon growth was normal compared to myelin because myelin inhibited outgrowth.

[2] = biological target: T1, 6FNIII-domain of Neogenin (Gallus gallus, UniProt Q90610); test: ELISA / AP binding assay of RGMa peptides to Neogenin domains; conditions: Neogenin domains fused to AP
T1 construct: made in house
T1 sequence (Q90610 429-1036): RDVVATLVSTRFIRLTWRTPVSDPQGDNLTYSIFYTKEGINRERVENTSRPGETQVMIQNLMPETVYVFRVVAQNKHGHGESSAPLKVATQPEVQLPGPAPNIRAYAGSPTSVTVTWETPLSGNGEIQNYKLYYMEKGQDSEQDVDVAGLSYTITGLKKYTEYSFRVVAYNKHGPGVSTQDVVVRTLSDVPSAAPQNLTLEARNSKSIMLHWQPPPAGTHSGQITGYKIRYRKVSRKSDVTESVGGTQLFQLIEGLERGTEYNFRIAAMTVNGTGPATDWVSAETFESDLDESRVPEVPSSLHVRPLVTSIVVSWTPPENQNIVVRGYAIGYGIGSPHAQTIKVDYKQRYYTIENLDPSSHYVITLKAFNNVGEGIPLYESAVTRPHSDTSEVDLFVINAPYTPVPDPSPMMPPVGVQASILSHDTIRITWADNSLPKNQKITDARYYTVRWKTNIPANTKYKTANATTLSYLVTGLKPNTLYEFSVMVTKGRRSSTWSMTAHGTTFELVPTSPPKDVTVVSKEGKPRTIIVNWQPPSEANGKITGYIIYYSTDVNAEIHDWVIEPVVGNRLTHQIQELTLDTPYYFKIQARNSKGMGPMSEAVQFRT
Excerpt: (§2) Specifically, the 4Ig-domain and 6FNIII-domain of Neogenin were each fused to alkaline phosphatase (AP). The 4Ig-domain and 6FNIII-domain of Neogenin were found in the extracellular portion of Neogenin. Accession No. AAC59662 (SEQ ID NO:1) was the amino acid sequence of Neogenin. The 4Ig-domain was amino acids 1 to 383 of Accession No. AAC59662 (SEQ ID NO:1). The 6FNIII-domain was amino acids 429 to 1036 of Accession No. AAC59662 (SEQ ID NO:1).
(§3) The binding of these fusions to various RGMa peptides were analyzed in an ELISA assay (FIG. 2A).
(§4) To determine if distinct N-terminal regions of RGMa bound the 4Ig- and 6FNIII-domains of Neogenin, peptides were generated that spanned the N-terminal region of RGMa. The amino acid sequence of RGMa was Accession No. NP_989868.1 (SEQ ID NO:6). These peptides were a peptide spanning amino acids 28-73 of RGMa (also referred to herein as “N-Raft”) and a peptide spanning amino acids 77-113 of RGMa (also referred to herein as “N-inh”). […] In a complementary experiment, in which the N-Raft and N-inh peptides of RGMa were fused with AP instead of the 4Ig- and 6FNIII-domains of Neogenin, N-Raft bound to the 4Ig-domain and not the 6FNIII-domain while N-inh bound to the 6FNIII-domain and not the 4Ig-domain (FIG. 9). Additionally, N-inh and N-Raft coated beads pulled down 6FNIII-domain and 4Ig-domain, respectively, which was consistent with the ELISA results described above (FIG. 2B).
(§5) The assay was conducted in a 96-well microtiter plate (Corning Incorporated). The wells were coated with 100 μl (10 μg/mL) of Poly-L-Lysine at 4° C. overnight. Wells were then washed three times with 100 μl of PB ST (+0.02% Tween).
(§6) 50 μl (2.5 μg/mL) of His-tagged: Full-length Neogenin; the 4Ig-domain of Neogenin; and 6FNIII-domain of Neogenin were coated onto each well for 1 hour at 37° C. Following three washes of 100 μl PBST, each well was then blocked with 300 μl of 3% BSA in PBST for 1 hour at 37° C.
(§7) 50 μl (1.0 μg/mL) AP-tagged: N-RGMa (28-73); N-RGMa (28-54); N-RGMa (40-62); N-RGMa (54-73); N-RGMa (54-62) in 1% BSA+PBST was then added to each well and incubated at 37° C. for 1 hour. Each well was washed thoroughly three times with 100 μl PBST followed by subsequent equilibration of each well with Alkaline Phosphatase (AP) developing buffer (100 mM NaHCO3, 1 mM MgCl2). The reaction was developed using AP developing buffer supplemented with, p-nitrophenyl phosphate (pNPP) (Sigma-Aldrich) and allowed to develop until color development. The reaction was stopped with the addition of 50 μl (0.1M) NaOH. The absorbance of each reaction was measured using a microplate autoreader (BIO-TEK Instruments Inc.) at 405 nanometers (nm) wavelength.

[3] = tested on: temporal retinal explants (axonal outgrowth); test: Retinal explants outgrowth assay; format: cell-based, chick; conditions: for effect on axonal outgrowth when provided as growth substrate (in trans): protein as substrate
Protocol: Poly-L-Lysine (SIGMA; 10 μg/ml) coated glass coverslips were treated with Laminin (Invitrogen; 10 μg/ml) and RGMa proteins (5 μg/ml) and incubated for 3 hours at room temperature. Temporal retinal explants were cultured on protein-coated surfaces for 18 hours. To disrupt the lipid rafts, explants were pretreated with 10 mM methyl-β-cyclodextrin (MβCD) for 12 minutes or 2 U/ml cholesterol oxidase (CO) for 1 hour at 37° C. Explants were then fixed with 4% paraformaldehyde (PFA) and stained with Alexa488-phalloidin. Fiber length was quantified using Image Pro 5.0. For immunolocalization, explants were treated with Cholera Toxin B-FITC (C1655; Sigma; 10 mg/mL) and patched, fixed and stained with Neogenin antibody. Retinal ganglion cells (RGCs) were electroporated with RGMa-His and cultured for 18 hours. The cells were fixed and stained with Neogenin and His-tag antibodies.
as §1
Statistical analysis of retinal outgrowth assays was performed using Student's two-tail t-test using Excel (Microsoft). Results were expressed as the mean±SEM (n=at least 3 independent experiments; 2 duplicates per independent experiment, >10 explants per duplicate).

[4] = biological target: T2, 6FNIII-domain of Neogenin (His-6FNIII) (Gallus gallus, UniProt Q90610); test: Pull-down assay with peptide-coated beads; format: binding; conditions: Western blot with anti-His
T2 construct: His; made in house
T2 sequence (Q90610 429-1036): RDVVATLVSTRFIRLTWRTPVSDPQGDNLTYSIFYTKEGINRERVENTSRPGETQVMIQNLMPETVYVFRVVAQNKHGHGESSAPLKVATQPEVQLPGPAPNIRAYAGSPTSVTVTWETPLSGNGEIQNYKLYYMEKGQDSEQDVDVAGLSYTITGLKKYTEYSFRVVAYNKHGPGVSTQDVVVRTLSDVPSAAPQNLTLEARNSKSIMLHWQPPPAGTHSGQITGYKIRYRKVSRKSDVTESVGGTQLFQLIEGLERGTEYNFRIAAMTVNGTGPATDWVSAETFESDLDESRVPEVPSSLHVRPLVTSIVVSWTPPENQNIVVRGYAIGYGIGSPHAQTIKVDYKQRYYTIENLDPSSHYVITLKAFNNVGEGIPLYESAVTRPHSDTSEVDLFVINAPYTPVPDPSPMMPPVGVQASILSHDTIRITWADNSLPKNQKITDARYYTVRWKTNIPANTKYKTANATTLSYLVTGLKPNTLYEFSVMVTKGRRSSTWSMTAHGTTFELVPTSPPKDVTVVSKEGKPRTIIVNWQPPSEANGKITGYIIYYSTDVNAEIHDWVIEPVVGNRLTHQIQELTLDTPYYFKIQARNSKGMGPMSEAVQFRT
Protocol: (A) RGMa proteins were incubated on plates coated with 4Ig- or 6FNIII-AP. One C- and one N-RGMa domain (N-RGMa^77-113) interacted with 6FNIII. One N-RGMa domain (N-Raft) interacted with 4Ig. (B) Supernatants (Sup) from cells expressing His-6FNIII or His-4Ig, were pulled down (IP) with beads coated with N-Raft, N-RGMa^50-99, and N-inh. Western Blot was then performed with an anti-His antibody to reveal whether or not His-6FNIII or His-4Ig interacted with the coated beads. […] Data are average±SEM (n=3 independent experiments), *p<0.0001. Scale bar, 100 μm. (E) Chick brains were injected with control peptide (Ctrl; N-RGMa^50-99), 4Ig, N-Raft, or Noggin 1 day before preparing membrane fractionations. In control experiments, Neogenin localized to the Flotillin/RGMa-containing lipid raft fraction (as shown in solid lined boxes). 4Ig, N-Raft, or Noggin shifted Neogenin to heavy fractions.
Proteins were coupled to activated CNBr Sepharose beads (Pharmacia) according to supplier instructions. Supernatants from transfected cells were added to coupled beads for 2 h at room temperature (RT). Beads were then washed 6× with PBS plus 0.02% Tween 20, and SDS loading buffer was added. Samples were boiled and subjected to Western blotting.

4Ig-domain of Neogenin = biological target: T3, 4Ig-domain of Neogenin (Gallus gallus, UniProt Q90610); test: ELISA / AP binding assay of RGMa peptides to Neogenin domains; conditions: for interaction with the 4Ig-domain of Neogenin: ELISA, Neogenin domains fused to AP
T3 construct: made in house
T3 sequence (Q90610 1-383): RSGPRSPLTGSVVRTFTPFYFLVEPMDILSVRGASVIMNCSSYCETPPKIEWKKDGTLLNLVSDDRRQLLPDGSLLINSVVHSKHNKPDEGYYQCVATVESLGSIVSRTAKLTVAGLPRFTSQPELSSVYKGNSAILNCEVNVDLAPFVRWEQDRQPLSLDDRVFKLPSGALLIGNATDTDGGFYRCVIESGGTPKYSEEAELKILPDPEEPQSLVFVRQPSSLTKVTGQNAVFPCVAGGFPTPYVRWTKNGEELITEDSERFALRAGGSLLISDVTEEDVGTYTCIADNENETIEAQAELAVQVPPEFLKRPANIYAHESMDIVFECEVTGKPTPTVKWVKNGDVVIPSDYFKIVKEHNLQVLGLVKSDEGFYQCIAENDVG
Excerpt: as §2, §3, §4, §5, §6, §7

Row | Molecule | interaction with the 6FNIII-domain of Neogenin [2] | interaction with the 4Ig-domain of Neogenin (4Ig-domain of Neogenin) | outgrowth on laminin [1] | outgrowth on myelin [1] | effect on axonal outgrowth when provided as growth substrate (in trans) [3] | other results
1 | Clc1ccccc1CNCC1CCC(CNCc2ccccc2Cl)CC1 (stereo not shown) [AY-9944] | – | – | did not influence outgrowth on laminin | restored outgrowth on myelin | – | number of rods within the Outer Nuclear Layer (anti-Rhodopsin) (photoreceptor cells; injected at P9, P21): dramatic increase in the number of rods; photoreceptor survival (photoreceptor cells; two intra-peritoneal injections at P9 and P15, sacrificed at P21): promoted photoreceptor survival
2 | O=C(O)c1ccc(CCN2CCN(C/C=C/c3ccc(Cl)cc3)CC2)cc1 [BM15.766] | – | – | did not influence outgrowth on laminin | restored outgrowth on myelin | – | –
3 | N-RGMa: N-terminal RGMa isoform of the CNS (protein, Mouse N-RGMa, N-terminal RGMa isoform of the CNS) MQPPRERLVVTGRAGWMGMGRGAGRSALGLWPTLAFLLCSFPAAISPCKILKCNSEFWSATSSGSHAPASDDVPEFCAALRTYALCTRRTARTCRGDLAYHSAVHGIEDLMSQHNCSKDGPTSQPRVRTLPPAGDSQERSDSPEICHYEKSFHKHSAAPNYT | interacted | interacted | – | – | blocked axon growth | –

More lines, main results first:

Row | interaction with the 6FNIII-domain of Neogenin [2] | interaction with the 4Ig-domain of Neogenin (4Ig-domain of Neogenin) | Molecule | outgrowth on laminin [1] | outgrowth on myelin [1] | effect on axonal outgrowth when provided as growth substrate (in trans) [3] | other results
4 | interacted | – | N-inh: peptide spanning amino acids 77-113 of RGMa (GDLAYHSAVHGIDDLMVQHNCSKDGPTSQPRLRTLPP; left off: small tags and cut ends) | – | – | – | axonal growth on peptide as substrate ([3]; RGMa peptide as substrate, controls 238.1±9.3 μm): 88.1±13.3 μm; pull-down of 6FNIII-domain by peptide-coated beads [4]: pulled down
5 | interacted | did not interact | RGMaΔ: RGMaΔ was full-length RGMa (protein) CKILKCNSEFWAATSGSHHLGAEETPEFCTALRAYAHCTRRTARTCRGDLAYHSAVHGIDDLMVQHNCSKDGPTSQPRLRTLPPGDSQERSDSPEICHYEKSFHKHSAAPNYTHCGLFGDPHLRTFTDTFQTCKVQGAWPLIDNNYLNVQVTNTPVLPGSSATATSKLTIIFKSFQECVEQKVYQAEMDELPAAFADGSKNGGDKHGANSLKITEKVSGQHIEIQAKYIGTTIVVRQVGRYLTFAVRMPEEVVNAVEDRDSQGLYLCLRGCPLNQQIDFQTFRLAQAAEGRARRKGPSLPAPPEAFTYESATAKCREKLPVEDLYFQSCVFDLLTTGDVNFMLAAYYAFEDVKMLHSNKDKLHLYERTRALAPGN | – | – | blocked axon growth | binding to the 4Ig-domain of Neogenin (4Ig-domain of Neogenin; AP-tagged fragments 1.0 μg/mL on coated His-tagged 4Ig): did not bind

Reference: patent US11497796B2, “Agents directed against a cis RGMa/neogenin interaction or lipid rafts and use of the same in methods of treatment” (UNIVERSITY HEALTH NETWORK, priority 2013, dated 2022)
